Results from US20260021119A1, “TETRACYCLINE DERIVATIVES” (ICM (INSTITUT DU CERVEAU ET DE LA MOELLE ÉPINIÈRE), priority 2022, published 2026).

Tested on: p-tau (phosphorylated tau protein at Ser202, Thr205 residues)
Experiment: p-tau (AT8) expression in cultured cortical neurons under oxidative stress
Type: cell-based, mouse
Parameters: key to Reduction of the % of p-tau+ somas: a favorable response, synonymous with a decrease in the number of p-tau+ cell bodies; ++: a favorable response, synonymous with a decrease in the number of p-tau+ cell bodies; +++=reference level; an unfavorable response is represented by a sign “−”, synonymous with an elevation of the number of p-tau+ cell bodies
Details: compounds 3 μM, APO 100 μg/mL; mouse cortical cultures exposed div 7-11 to DF12i
Protocol: A culture model of cortical neurons from mouse embryonic brain was used, in which neuronal cells were subjected to a maturation step until day in vitro (div) 7, before being gradually exposed to phenol red formulated DMEM/Nutrient mixture F12 Ham supplemented with 20 μg/mL of insulin, and 2 μM of the NMDA receptor blocker MK-801 (DF12i).
Precisely, after 4 days of exposure to DF12i, between 10-15% of surviving neurons show a very strong AT8 immunosignal in their somas while only 1 to 1.5% of neuronal cell bodies are found immunopositive under conditions where oxidative stress is repressed by treatment with bovine apotransferrin (APO; 100 µg/mL, Sigma Aldrich), a glycoprotein with iron chelating properties. Likewise, overexpression of p-tau in cortical cell bodies is reduced by the two non-antibiotic tetracyclines compound of formula (C) ([…]) and compound of formula (Ib) ([…]): see the following Table: […]

B1: apotransferrin (protein, UniProt Q29443 20-704, looked up)
Serotransferrin: DPERTVRWCTISTHEANKCASFRENVLRILESGPFVSCVKKTSHMDCIKAISNNEADAVTLDGGLVYEAGLKPNNLKPVVAEFHGTKDNPQTHYYAVAVVKKDTDFKLNELRGKKSCHTGLGRSAGWNIPMAKLYKELPDPQESIQRAAANFFSASCVPCADQSSFPKLCQLCAGKGTDKCACSNHEPYFGYSGAFKCLMEGAGDVAFVKHSTVFDNLPNPEDRKNYELLCGDNTRKSVDDYQECYLAMVPSHAVVARTVGGKEDVIWELLNHAQEHFGKDKPDNFQLFQSPHGKDLLFKDSADGFLKIPSKMDFELYLGYEYVTALQNLRESKPPDSSKDECMVKWCAIGHQERTKCDRWSGFSGGAIECETAENTEECIAKIMKGEADAMSLDGGYLYIAGKCGLVPVLAENYKTEGESCKNTPEKGYLAVAVVKTSDANINWNNLKDKKSCHTAVDRTAGWNIPMGLLYSKINNCKFDEFFSAGCAPGSPRNSSLCALCIGSEKGTGKECVPNSNERYYGYTGAFRCLVEKGDVAFVKDQTVIQNTDGNNNEAWAKNLKKENFEVLCKDGTRKPVTDAENCHLARGPNHAVVSRKDKATCVEKILNKQQDDFGKSVTDCTSNFCLFQSNSKDLLFRDDTKCLASIAKKTYDSYLGDDYVRAMTNLRQCSTSKLLEACTFHKP
modifications: iron-free apo form
- Reduction of the % of p-tau+ somas: +++
